Laboratory results reported in the supplement of paper PMC12636428.

System: Saccharomyces cerevisiae
Assay: transcriptional activation domain activity (GFP:mCherry ratio, weighted mean of sorted bins, harmonized to initial dataset scale) (arbitrary fluorescence ratio units); higher = stronger transcriptional activation
Details: beta-estradiol 1 µM; induction time 4 h
Method in brief: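 After a 1:5 dilution into SC with 1 uM beta-estradiol and 4 hours at 30 °C, yeast diploids carrying a GFP reporter and URA3-integrated barcoded tiles were sorted into 8 bins by GFP:mCherry ratio. The tiles were fused to an estradiol-inducible synthetic transcription factor. Barcodes were sequenced, tiles below 50 reads were discarded, and activation activity was taken as the read-weighted mean of bin median fluorescence, averaged across barcodes and linearly mapped onto the initial dataset scale.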

Sequence	transcriptional activation domain activity
YSIYVYRYFLYQWGDLCYMALHPTTSSLIGVIVCKLEPHRSGPFRGYIAMLAV	42600
ALYSLKGRELGWLCLTICTFDGKSWMEFGAFSRRGLFTYNYGLLQPNTKRIAV	35700
MIHYPPLLQSPRLVCTLLCSVDVIWLWFNHLFTLFITWRGVLFFLSFFTLLFF	51600
MCARSLFCGYIFFLVLYLLAWLGVFPCPFTLFLLSFLFPIFFFLLCWRLAFAC	45800
ADSRRKTRRVRKRKSSRRHQEEGEEEESESEEEEADARKRRKKEKGGGKDKKK	23600
EGAAAPAPAAAEKKEEPKKAETPKAEAPKAEAPKETSSRADAAKPAAAPKAAA	39400
SSGGGSTSESESESESEIEEDESKGEREGEGEKEKKKKKKKKGEEKAQHARRD	31700
SKDEEGEGEGEGDEEKVEEGGDEDGEQVEGEDGAKSAAATASAKKFSKREKEM	48900
MISIPFPFHFIFKYVWWYYHVLYCLLACLLACCSCTYMFYLPVLLMLLLLFGC	41900
ATDCAVKALRALQILMDHPTFPYDACLDLWHRCWPWMHFVHTFWKYLPGFVTG	57200
TMYYDAIWLMWKDHSLQGWEVAHNTFDQLHVVLDDHLLYPVLNLLMIVIILPD	51200
IVMGKGTVHLCYLILSFFMYLLYSLLSHTQNILLDPLHTLFVSTFCLLHHSVF	56200
ARQGVGMMQSNVVFFFFFSFSFLFLFFFFSFSFLFLFFFPFSIIPTCSSLAVF	44800
EGADVVVEGNERRKKGESVWEKNLRKGLYGVALDYVLEQASSPIIVLTVLTAL	60900
CFCCNYFKVPLFCCSLSLYQTIRFFLIFLLLLLQRPSFSVFLVNSILLRFFPL	37600
MGLWARFICFVIVCFQIISLYCLFSCSLFFLYLQKTQPHFFLLSLFPSSFPPS	62700
KDGKQRRTREAAGSGHARRRRRGDRERRKGQPRAGRPGAKAKGKAGGTGAKQE	15700
TETELYIPEFKLDPVNGYWFPHFVKYIIVALMMGLYILIVFWTLMIFKVVYKL	43100
DDETADGERQSKREKADDDDDGEEMEIDEEEESAANRNTAVVPPAVQKPSARL	19200
FTSIMMTLVSLVQVGLLQFQCRDLLLCGIYIFYCLIKVPYLSLICSATLLVYG	44300
RRVGEVMCFQALLHFLGMLSFWYGVLRRLGFTLINFFLNRVVLLGLLAFICYE	69500

Sequence	transcriptional activation domain activity
VPLEEYIPSDIDGVGRVTDKSSLVYDWPFDESIERNFSTTATAATGESKFDIN	68100
HVGRLMPIIAYFRAVIKCIEMLGVKRPVLVCPLSSFHGGFYVGGLMFQCVDRK	62600
REGEGRGERGREGAGRERGGGKGVGGGEGGGERTIRLKGRKGDSNETTRRKEE	31700
RRRRKARSARLKKAEKTAAAVGQEAKPKAENAEGASVPPRRKRRRARSRKPKK	28100
MIFSLFLSYNPLFYFIYYYLFYFSCFLLLILIAIITIIAILLCILEFHVPKSL	51600
SDDDEPPAKAAPKPKPRPVGKAKAKAREPEPESDGEVSAVQKKKKRKIGIFQS	37600
SLTQLIWYLLRRRPFTVLQLNHLFGLPDPLRILHLASSRRLWNAIPVITIATL	54600
SFSLSVLSFFFFSIWLPLPPLSLSLSLFSPHLFPPLPFTLSLWVQWLYTFSYY	79300
SLSVVLLHMRHRRLLFSVVMILFIFWMLYVGHCMLYVLLLLRVLLLSLHLWIV	31700
EAEDTAAARLKRAKSERMRLRTRVVQAMWAEASEEERGAAEAEVAREKEAIRA	30400
KIMSFIIGLGLICPLVLVRDKLTILLTLCYEGLLVGFWFIDHAQALRWYCLFI	68700
IHSMYRPFQMLTMDFMVMNLCLFSAILLGILYLFFGAFHLVFTVVYDFKLWQV	43200
MSWQRVYRGWVVNGPGFGFFGRYYWIIIIRLAVPRRLLTCSCWCFGWLLFFLI	65700
MFSWLYLSYFQPLWRAFISLFIFLRTLHQSSPSIFFISIILLFICFPLAMFAV	19200
TINLSLPPRDRYVLVATDYAHVLREMPCLYDEAVQHMKLPAGFFHLLGRILLR	58100
KANSKAKLSKKDESSDESESDSEDEKPAPKANGKQVCCAVPLAIFFIALLTKY	57400
CVRVLCISFSLTLSSSCLLVGIVLRWSLCCLLYFVCVPLHLDTLLSFSSIPTL	50600
SDASAGAEAGTDGSAAPPKKKPRQKRAAPLPGEEGYDAAASKPKRAPRKRKAS	25300
MCVFLFFVLWLLQKLGLLALALRCYVQKNSLIFFLFFFLVLDYIFFFLHWCKH	35300
CLMVVFLIVQLLVITVARRCRKTDARFVLERVFLKTHLGLYVFCLLITNFASG	50200
EEEGNSRRKRRHRDDRDSRERDERGRDRDRERRRHRRDSSRSRDASEEERGHK	13400

Sequence	transcriptional activation domain activity
DSEADSEDDDNGAESDKKMPVADKSEHQTGILSKLYKLNVYGEGSFFKPHKDT	45700
GPSAEATPPSTEVKKKRQYRKRQITAEGGEAENGEASSAVPKPKRVRKKKDPP	38300
MPTDHASDTPSLGESSNQGAHKGYGRACLQCRQKKRKCRPSETKPDLCLLCEK	40000
SLPYFLYICDWYLCNSFLYLSSILSFHCVYLCCFASIITLWFPAFFLTVILSI	51500
VSFDFPRSPYPNGSFESFLRDIFARCNLLEVLVFRTKVKSLRGWLKHYTYFAD	75400
MSADYAIGQFRYLAKLLLVHGHWNTYRIGVLHQVFFYKNLIWTGCLLIFQIFT	45800
MMMGTIVKSFFLFTFTFSIFFFYFFPRVLFTPFFFTYWTSAFFLLLFLFFFLF	64900
KVAEPGSKVSLRAPVDPNAPAPKPKKGKDGKEIKEEPKMIEKVVDSIYLHVQT	41000
FELHIPYHFVVVNTGKKLFQIWGLGKIDFARDFPFLQGARGSLTRTIIVILRN	52300
SSQTPVLLWIIHFILPNLCILLYFTLQLIYLLRHHKSKWLIGDLVHSYCFYFI	81000
AVSAGLMSGFGSSSDEDEDEEQENEEDVNNEVSYPLHKLSHRFFFGHNAPSGA	15700
MPRKAAAATTEIPAEPRRSSRIKEQPKVEPAPKKAPAKPRGKKAKAAEAEAAP	13000
ISLLTLSFFYCFLGVFLPGFSLSLLPFPLFCFFLAFFLPCFSLSLLPFYPFFF	56500
KGEERGMEKDKEKDKDRDREVKKEKAREARADKEGARPKAAIRQVKVKSAVKQ	56500
MPLQLRCLYNCDVSLIVMLLLGLLLGIFPSLHIEICICSRDLLLICMGMWPVR	45500
MWVTQHCLLATQWALLCVPPFRGLLLLLLFLYVFKFLFGLRIFILYLVSMLVM	46100
FVYLILTILPCLDHRCPYRTPMSSIWWYCWHTSLGFFALCARWLLNLLHGILV	50200
GRGVKAGGGPRDREGGERGRERGEEGGEEGARRKEGDSRKEPAGGERREREEG	33400
TATKPTESKPVETKTDAAAAGKSTTPANGSGSASATKPAETASTTEKKKKNRL	30400
AVPGEVTEAEANGETDKAEGAAPAEGDAEKPKKKKKKSAKKPKSTGAEGEAAE	24700
APSPTPDDDADMKKKDGDGKKDGEDGKKKMKMVTALKNCSFTVPAGTTAALVG	39400

Sequence	transcriptional activation domain activity
LLAVDPNVWSHFDIVVLEFSRHYIHFHWKSLLWLVGPVVVWGWMVCTLLVWFI	49400
KREQREKEKEAEREREREKAARAARRESRREERTRREDEKERGARHEERTSRY	28000
CCIRNSLFQEDSKCIKQQPDLLSEQTAPFPILEDQCPALNLDRSNNDLLLQNN	35300
MFLYISLIFTLYYSTFPPPPPHPTSYLAIFLFLKLPWLFFSFSTSFSFTFFFW	58400
TVKNLYLFIIITTVNVVVLLICVAHFALVFMSRAGLSLHARQLTALMHAKFTH	49000
NMSPNNDDNSIDTASTNTTNRKKNIDENIKNNNDIINDIIFNTNLANNLSNYN	51000
SSSKSAADVAAGEGKKTEKAGEKKEGTAAAAEKKKIEEKPAREEKKEEEKVPV	24300
SSPVVVSKIEDKNTEDKGADVKKTEESKKEEKTEVKQESKPEEKAEAKSEEKK	29300
GPDPFQQLSSAEHPNNHSSDDEHSGSQPLPLDSITIGIPPTLHTIPMILSKDN	62900
MDPSTRRRVTNIGPLDKRRTLRRCEQCRISRTKCEGGRPCHACRARLVGCRDQ	41700
MGFKLLLLLPYCTPRLIFKKLLLWLRFFFFLHFLFLPRRTLKNLAPCIFFLLY	40900
FSLAGSNYLGICWNPAVKNCIPYDTYLLWIRCMPFWYLFVFLYDIIPPILIVY	59800
MRKTCRFICNVTRMRTVWIKALERVCARHGVFKPTFPLQRMSILDLEYASLGP	52200
MILHSSYLPLGVPPFSIYYILHTLGHSINKITKLLLSNLILRFLNCCTQLIVR	53400
MLIQSQPQPPPTKHTPLYFIPHFILLLLLALSPSLTLLTLSFFYLFLFCYLLV	20900
EGLGTAWLFKKEDLLCKSAYEIATISNSWLCGVQGTLLMYLVLVLLCLSFFLI	30800
DIETLLVYDYYPKPLLDIDLTIRGRHIYLPIEKTWLRYVPKPPWYLLVLLFAG	60500
CWWPFGIPVYMFFHAPETVHYSYFLFFFLSLSLPAMLNIYLVIFIVSWLKSVP	38200
MAPWDDAPAPFAADGDADDVTGSELAERFNKESGKVNAQLSAFPSALLCGRDK	61900
MVICFHSLFLQLTTCVLDLYLHYGFLVLFLFLFFIFFPASYFSAYFFFFFIFC	35900
